Values quoted from earlier work, collected in patent EP0632082B1, “Preparation of activated carbamates of poly(alkylene glycol) and their use” ("HEYLECINA", Société Anonyme, priority 1993, dated 1995).

Conditions: modification with SC-mPEG

## papaya proteinase III: papaya proteinase III modified with SC-mPEG
  increase of specific activity: 250%
